# Data published in article doi:10.1101/2024.01.31.578278.
# Molecular target: cytochrome c (CytC), recombinant human (human, UniProt P99999 1-105)
# Assay: electrochemical aptasensor
# Chain of cytochrome c (CytC), recombinant human (P99999 whole entry): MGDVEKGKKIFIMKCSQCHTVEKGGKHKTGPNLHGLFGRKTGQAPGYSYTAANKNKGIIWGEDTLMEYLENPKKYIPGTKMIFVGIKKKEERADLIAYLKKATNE
binder,measurement,value
"CCGTGTCTGGGGCCGACCGGCGCATTGGGTACGTTGTTGC (ssDNA, 5' thiol C6 (ThioMC6-D, disulfide reduced); 3' amino modifier (AmMO)) [CytC aptamer]",Kd,6.19 ± 1.57 ng/mL
